# Laboratory results from patent US20210398607A1, “METHODS FOR DESIGNING ANTIBODY SMALL-MOLECULE CONJUGATES” (priority 2020, published 2021).
# Read-outs that look alike come from different tables or passages of the source.
# T1: mSA (monomeric streptavidin construct), wild type
# T1 construct: also called mSAWT
# T1 chain: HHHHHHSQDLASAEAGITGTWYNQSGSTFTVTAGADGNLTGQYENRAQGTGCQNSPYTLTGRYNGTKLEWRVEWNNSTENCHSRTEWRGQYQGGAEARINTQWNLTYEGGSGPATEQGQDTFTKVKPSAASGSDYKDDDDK
# T2: mSAS27A (mSA with single mutation S27A)
# T2 chain: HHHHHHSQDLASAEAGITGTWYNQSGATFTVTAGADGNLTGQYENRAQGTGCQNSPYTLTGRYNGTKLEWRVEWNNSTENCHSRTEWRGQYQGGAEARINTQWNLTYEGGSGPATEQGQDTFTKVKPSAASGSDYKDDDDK
# B1: 2X89.A-CCAA-biotin57 v42 (VHH)
# VHH: QVQLQESGGGLVQAGGSLRLSCAASGYTDSQYAMGWYRQAPGKEREWVATISAGRDCTYYADSVKGRFTFSQDNAKNTVYLQMDSLKPEDTAVYYCATDIPLQATLITAKGGKGFQYWGQGTQVTVSS
# B2: 2X89.A-CCAA-biotin57 v20 (VHH)
# VHH: QVQLQESGGGLVQAGGSLRLSCAASGYTSSQYAMGWYRQAPGKEREWVATISAGRDCTYYADSVKGRFTFSQDNAKNTVYLQMDSLKPEDTAVYYCATDSPLQATLITAKGGKGFQYWGQGTQVTVSS
# B3: 2X89.A-CCAA-biotin57 v5 (VHH)
# VHH: QVQLQESGGGLVQAGGSLRLSCAASGYTSSQYAMGWYRQAPGKEREWVATISAGADCTYYADSVKGRFTFSQDNAKNTVYLQMDSLKPEDTAVYYCATDSPLQATLITAKGGKGFQYWGQGTQVTVSS
# notes: also called variant v5; final variant v5
# B4: 4NBX.B-biotin103 v119 (VHH)
# VHH: QVQLQESGGGLAQAGGSLRLSCAASGRTFSHAPMAWFRQPPGKEREFVAAGSSTGRTTYYADSVKGRFTISRDNAKNTVYLQMNSLKPEDTAVYYCAAAPYGCSHYRDEYAYWGQGTQVTVSS
# B5: 4NBX.B-biotin103 (VHH)
# VHH: QVQLQESGGGLAQAGGSLRLSCAASGRTFSMDPMAWFRQPPGKEREFVAAGSSTGRTTYYADSVKGRFTISRDNAKNTVYLQMNSLKPEDTAVYYCAAAPYGCNWYRDEYAYWGQGTQVTVSS
# notes: also called 4NBX.B-biotin103 WT
# B6: 4NBX.B-biotin103 v186_Fr (VHH)
# VHH: QVQLQESGGGLVQAGGSLRLSCAASGRTFSRSPMAWYRQPPGKEREFVAAGSSTGTTTYYADSVKGRFTISRDNAKNTVYLQMNSLKPEDTAVYYCAAAPLGCARKFAESAYWGQGTQVTVSS
# notes: also called wildtype v186_Fr
# B7: 4NBX.B-biotin103 v186_Fr +1 (VHH)
# VHH: QVQLQESGGGLVQAGGSLRLSCAASGRTFSRSPMAWYRQPPGKEREFVAAGSSTGTTTYYADSVKGRFTISRDNAKNTVYLQMNSLKPEDTAVYYCAAAPLGACRKFAESAYWGQGTQVTVSS
# notes: also called +1 variant of 4NBX.B-biotin103 v186_Fr
# B8: 2X89.A-CCAA-biotin57 (VHH)
# VHH: QVQLQESGGGSVQAGGSLRLSCAASGYTDSRYAMAWFRQAPGKEREWVARINSGRDCTYYADSVKGRFTFSQDNAKNTVYLQMDSLEPEDTATYYCATDIPLRARDIVAKGGDGFRYWGQGTQVTVSS
# notes: also called parent conjugate
# Columns and labels:
# [1] = target: mSA; conditions: read-out: biotin/mSA affinity, fluorescence polarization spectroscopy, cited from earlier work
# [2] = target: T1, mSA (monomeric streptavidin construct), …; test: SPR, single-cycle injections of 2.5, 5, 10, 20 and 50 nM conjugate; target mSAWT by the text, not printed on the sheet; fit curve
# [3] = target: T1, mSA (monomeric streptavidin construct), …; test: as above
# [4] = target: T1, mSA (monomeric streptavidin construct), …; test: as above
# [5] = target: T1, mSA (monomeric streptavidin construct), …; test: SPR
# [6] = target: T1, mSA (monomeric streptavidin construct), …; test: SPR; variant v119
# [7] = target: T1, mSA (monomeric streptavidin construct), …; test: SPR, conjugate injected at 0.5, 1, 2.5, 5, 10 nM over immobilized mSAWT; fit curve; replicate 2
# [8] = target: T1, mSA (monomeric streptavidin construct), …; test: SPR, conjugate injected at 0.5, 1, 2.5, 5, 10 nM over immobilized mSAWT; fit curve; replicate 3
# [9] = target: T1, mSA (monomeric streptavidin construct), …; test: SPR, conjugate injected at 0.5, 1, 2.5, 5, 10 nM over immobilized mSAWT; fit curve; one of three replicates
# [10] = target: T2, mSAS27A (mSA with single mutation S27A); test: SPR
# [11] = target: T1, mSA (monomeric streptavidin construct), …; test: SPR, 25 °C, immobilized mSA
# [12] = target: T2, mSAS27A (mSA with single mutation S27A); test: SPR; reference mSAS27A/biotin
# [13] = target: T1, mSA (monomeric streptavidin construct), …; test: SPR, 25 °C; reference mSA on immobilized biotin
# [14] = target: T1, mSA (monomeric streptavidin construct), …; test: SPR, conjugate injected at 1, 2.5, 5, 10, 20 nM over immobilized mSAWT; fit curve; replicate 2
# [15] = target: T1, mSA (monomeric streptavidin construct), …; test: SPR, conjugate injected at 1, 2.5, 5, 10, 20 nM over immobilized mSAWT; fit curve; replicate 3
# [16] = target: T1, mSA (monomeric streptavidin construct), …; test: SPR, conjugate injected at 1, 2.5, 5, 10, 20 nM over immobilized mSAWT; fit curve; one of three replicates
# [17] = target: T2, mSAS27A (mSA with single mutation S27A); test: SPR, conjugate injected at 62.5, 125, 250, 500 nM and 1 µM over immobilized mSAS27A; fit curve; one of three replicates
# [18] = target: T2, mSAS27A (mSA with single mutation S27A); test: SPR, conjugate injected at 62.5, 125, 250, 500 nM and 1 uM over immobilized mSAS27A; biological replicate 2; fit curve
# [19] = target: T2, mSAS27A (mSA with single mutation S27A); test: SPR, conjugate injected at 62.5, 125, 250, 500 nM and 1 uM over immobilized mSAS27A; biological replicate 3; fit curve
# [20] = target: T1, mSA (monomeric streptavidin construct), …; test: SPR, conjugate injected at 0.5, 1, 2.5, 5, 10 nM over immobilized mSAWT; fit curve; replicate 2
# [21] = target: T1, mSA (monomeric streptavidin construct), …; test: SPR, conjugate injected at 0.5, 1, 2.5, 5, 10 nM over immobilized mSAWT; fit curve; replicate 3
# [22] = target: T1, mSA (monomeric streptavidin construct), …; test: SPR, conjugate injected at 0.5, 1, 2.5, 5, 10 nM over immobilized mSAWT; fit curve; one of three replicates
# [23] = target: T2, mSAS27A (mSA with single mutation S27A); test: SPR, conjugate injected at 12.5, 25, 50, 100, 200 nM over immobilized mSAS27A; fit curve; one of three replicates
# [24] = target: T2, mSAS27A (mSA with single mutation S27A); test: SPR, conjugate injected at 12.5, 25, 50, 100 and 200 nM over immobilized mSAS27A; biological replicate 2; fit curve
# [25] = target: T2, mSAS27A (mSA with single mutation S27A); test: SPR, conjugate injected at 12.5, 25, 50, 100 and 200 nM over immobilized mSAS27A; biological replicate 3; fit curve
# [26] = target: T1, mSA (monomeric streptavidin construct), …; test: SPR, single-cycle injections of 1, 2.5, 5, 10 and 20 nM conjugate over immobilized mSAWT; fit curve
# [27] = target: T1, mSA (monomeric streptavidin construct), …; test: SPR, conjugate injected at 1, 2.5, 5, 10, 20 nM over immobilized mSAWT; fit curve; one of three replicates
# [28] = target: T1, mSA (monomeric streptavidin construct), …; test: SPR, conjugate injected at 1, 2.5, 5, 10, 20 nM; fit curve; replicate 2. The panel title prints 'against immobilized mSAS27A'; target taken as mSAWT after the legend of FIG. 6B and the matching data points of FIG. 6C
# [29] = target: T1, mSA (monomeric streptavidin construct), …; test: SPR, conjugate injected at 1, 2.5, 5, 10, 20 nM; fit curve; replicate 3. The panel title prints 'against immobilized mSAS27A'; target taken as mSAWT after the legend of FIG. 6B and the matching data points of FIG. 6C
# [30] = target: T1, mSA (monomeric streptavidin construct), …; test: SPR, conjugate injected at 1, 2.5, 5, 10, 20 nM; fit curve; replicate 2. The panel title prints 'against immobilized mSAS27A'; target taken as mSAWT after the legend of FIG. 6B (other two replicates against mSAWT are in FIG. 11) and the matching data points of FIG. 6C
molecule,measurement,setting,value
O=C(O)CCCC[C@@H]1SC[C@@H]2NC(=O)N[C@@H]21 [biotin],Kd,[1]; 4° C.,2.8 ± 0.5 nM
same,Kd,[1]; 37° C.,5.5 ± 0.2 nM
B1,Kd,[2],3.32 nM
same,koff,[2],0.00178 s⁻¹
same,kon,[2],540000 M⁻¹ s⁻¹
B2,Kd,[3],3.28 nM
same,koff,[3],0.00183 s⁻¹
same,kon,[3],560000 M⁻¹ s⁻¹
B3,Kd,[4],2.78 nM
same,koff,[4],0.00122 s⁻¹
same,kon,[4],440000 M⁻¹ s⁻¹
B4,fold KD improvement over 4NBX.B-biotin103 WT,[5],~2 fold
same,Kd,[6],0.9 nM
same,Kd,[7],0.76 nM
same,koff,[7],0.00186 s⁻¹
same,kon,[7],2.45e+06 M⁻¹ s⁻¹
same,Kd,[8],1.11 nM
same,koff,[8],0.00213 s⁻¹
same,kon,[8],1.93e+06 M⁻¹ s⁻¹
same,Kd,[9],0.78 nM
same,koff,[9],0.00177 s⁻¹
same,kon,[9],2.3e+06 M⁻¹ s⁻¹
B5,Kd,[10],245 nM
same,Kd,[11],1.8 nM
same,fold affinity improvement over biotin/mSAS27A,[12],5 fold
same,fold affinity improvement over biotin/mSA,[13],4 fold
same,Kd,[14],1.59 nM
same,koff,[14],0.00197 s⁻¹
same,kon,[14],1.24e+06 M⁻¹ s⁻¹
same,Kd,[15],1.92 nM
same,koff,[15],0.00225 s⁻¹
same,kon,[15],1.17e+06 M⁻¹ s⁻¹
same,Kd,[16],1.86 nM
same,koff,[16],0.00221 s⁻¹
same,kon,[16],1.19e+06 M⁻¹ s⁻¹
same,Kd,[17],279 nM
same,koff,[17],0.12 s⁻¹
same,kon,[17],430000 M⁻¹ s⁻¹
same,Kd,[18],269 nM
same,koff,[18],0.296 s⁻¹
same,kon,[18],1.1e+06 M⁻¹ s⁻¹
same,Kd,[19],188 nM
same,koff,[19],0.149 s⁻¹
same,kon,[19],790000 M⁻¹ s⁻¹
B6,Kd,[5],0.2 nM
same,fold KD improvement over biotin/mSAWT,[5],> 20 fold
same,Kd,[10],54 nM
same,fold KD improvement (over biotin/mSAS27A),[10],~20 fold
same,Kd,[20],0.16 nM
same,koff,[20],0.00079 s⁻¹
same,kon,[20],5.04e+06 M⁻¹ s⁻¹
same,Kd,[21],0.21 nM
same,koff,[21],0.00089 s⁻¹
same,kon,[21],4.26e+06 M⁻¹ s⁻¹
same,Kd,[22],0.23 nM
same,koff,[22],0.0011 s⁻¹
same,kon,[22],4.79e+06 M⁻¹ s⁻¹
same,Kd,[23],49.6 nM
same,koff,[23],0.0912 s⁻¹
same,kon,[23],1.84e+06 M⁻¹ s⁻¹
same,Kd,[24],56.3 nM
same,koff,[24],0.0879 s⁻¹
same,kon,[24],1.56e+06 M⁻¹ s⁻¹
same,Kd,[25],55.5 nM
same,koff,[25],0.0872 s⁻¹
same,kon,[25],1.57e+06 M⁻¹ s⁻¹
B7,fold weaker binding than the -1 variant,[5],~2 fold
same,Kd,[26],0.64 nM
same,koff,[26],0.00138 s⁻¹
same,kon,[26],2.14e+06 M⁻¹ s⁻¹
B8,Kd,[5],0.8 nM
same,Kd,[27],0.82 nM
same,koff,[27],0.000771 s⁻¹
same,kon,[27],940000 M⁻¹ s⁻¹
same,Kd,[28],1.01 nM
same,koff,[28],0.000718 s⁻¹
same,Kd,[29],0.54 nM
same,koff,[29],0.000555 s⁻¹
same,kon,[29],1.03e+06 M⁻¹ s⁻¹
same,kon,[30],710000 M⁻¹ s⁻¹
